What was measured:
[1] = biological target: T1, POLE1 (Pol epsilon catalytic subunit);POLE2;POLE3;POLE4 DNA binding mutant (DB/DBM) (human;human;human;human, UniProt Q07864;P56282;Q9NRF9;Q9NR33 1-2286;1-527;1-147;1-117, |||A44L;R45D;K47E;K51E); experiment: EMSA; binding abolished; EMSA: 30 nM DNA, 30-120 nM protein; protein dilution buffer 25 mM Hepes pH 7.5, 100 mM NaCl, 10% glycerol, 0.5 mM EDTA, 1 mM DTT, 0.01% NP-40; 5x reaction buffer 175 mM Hepes pH 7.4, 100 mM NaCl, 10 mM DTT, 500 ug/ml BSA; on ice 20 min (legends: 15 min); native TBE gel at 4 C; conditions: protein: recombinant;recombinant;recombinant;recombinant; tags: N-terminal streptavidin tag;;;; copies: 1;1;1;1; label: 5' 6FAM on strand 1; blunt
[2] = biological target: POLE1 ISC mutant;POLE2;POLE3;POLE4 (human;human;human;human, UniProt Q07864;P56282;Q9NRF9;Q9NR33 1-2286;1-527;1-147;1-117, C651S;C654S|||); experiment: EMSA; EMSA: 30 nM DNA, 30-120 nM protein; protein dilution buffer 25 mM Hepes pH 7.5, 100 mM NaCl, 10% glycerol, 0.5 mM EDTA, 1 mM DTT, 0.01% NP-40; 5x reaction buffer 175 mM Hepes pH 7.4, 100 mM NaCl, 10 mM DTT, 500 ug/ml BSA; on ice 20 min (legends: 15 min); native TBE gel at 4 C; conditions: protein: recombinant;recombinant;recombinant;recombinant, tags: N-terminal streptavidin tag;;;, copies: 1;1;1;1
[3] = biological target: POLE1 (Pol epsilon catalytic subunit);POLE2 (human;human, UniProt Q07864;P56282 1-2286;1-527, |); experiment: EMSA; without POLE3-POLE4; EMSA: 30 nM DNA, 30-120 nM protein; protein dilution buffer 25 mM Hepes pH 7.5, 100 mM NaCl, 10% glycerol, 0.5 mM EDTA, 1 mM DTT, 0.01% NP-40; 5x reaction buffer 175 mM Hepes pH 7.4, 100 mM NaCl, 10 mM DTT, 500 ug/ml BSA; on ice 20 min (legends: 15 min); native TBE gel at 4 C; conditions: protein: recombinant;recombinant; tags: N-terminal streptavidin tag;; copies: 1;1; label: 5' 6FAM
[4] = biological target: T1, POLE1 (Pol epsilon catalytic …); experiment: EMSA; EMSA: 30 nM DNA, 30-120 nM protein; protein dilution buffer 25 mM Hepes pH 7.5, 100 mM NaCl, 10% glycerol, 0.5 mM EDTA, 1 mM DTT, 0.01% NP-40; 5x reaction buffer 175 mM Hepes pH 7.4, 100 mM NaCl, 10 mM DTT, 500 ug/ml BSA; on ice 20 min (legends: 15 min); native TBE gel at 4 C; conditions: protein: recombinant;recombinant;recombinant;recombinant; tags: N-terminal streptavidin tag;;;; copies: 1;1;1;1; label: 5' 6FAM

Sequence of POLE1 ISC mutant;POLE2;POLE3;POLE4 (Q07864 whole entry C651S/C654S, chain 1 of 4): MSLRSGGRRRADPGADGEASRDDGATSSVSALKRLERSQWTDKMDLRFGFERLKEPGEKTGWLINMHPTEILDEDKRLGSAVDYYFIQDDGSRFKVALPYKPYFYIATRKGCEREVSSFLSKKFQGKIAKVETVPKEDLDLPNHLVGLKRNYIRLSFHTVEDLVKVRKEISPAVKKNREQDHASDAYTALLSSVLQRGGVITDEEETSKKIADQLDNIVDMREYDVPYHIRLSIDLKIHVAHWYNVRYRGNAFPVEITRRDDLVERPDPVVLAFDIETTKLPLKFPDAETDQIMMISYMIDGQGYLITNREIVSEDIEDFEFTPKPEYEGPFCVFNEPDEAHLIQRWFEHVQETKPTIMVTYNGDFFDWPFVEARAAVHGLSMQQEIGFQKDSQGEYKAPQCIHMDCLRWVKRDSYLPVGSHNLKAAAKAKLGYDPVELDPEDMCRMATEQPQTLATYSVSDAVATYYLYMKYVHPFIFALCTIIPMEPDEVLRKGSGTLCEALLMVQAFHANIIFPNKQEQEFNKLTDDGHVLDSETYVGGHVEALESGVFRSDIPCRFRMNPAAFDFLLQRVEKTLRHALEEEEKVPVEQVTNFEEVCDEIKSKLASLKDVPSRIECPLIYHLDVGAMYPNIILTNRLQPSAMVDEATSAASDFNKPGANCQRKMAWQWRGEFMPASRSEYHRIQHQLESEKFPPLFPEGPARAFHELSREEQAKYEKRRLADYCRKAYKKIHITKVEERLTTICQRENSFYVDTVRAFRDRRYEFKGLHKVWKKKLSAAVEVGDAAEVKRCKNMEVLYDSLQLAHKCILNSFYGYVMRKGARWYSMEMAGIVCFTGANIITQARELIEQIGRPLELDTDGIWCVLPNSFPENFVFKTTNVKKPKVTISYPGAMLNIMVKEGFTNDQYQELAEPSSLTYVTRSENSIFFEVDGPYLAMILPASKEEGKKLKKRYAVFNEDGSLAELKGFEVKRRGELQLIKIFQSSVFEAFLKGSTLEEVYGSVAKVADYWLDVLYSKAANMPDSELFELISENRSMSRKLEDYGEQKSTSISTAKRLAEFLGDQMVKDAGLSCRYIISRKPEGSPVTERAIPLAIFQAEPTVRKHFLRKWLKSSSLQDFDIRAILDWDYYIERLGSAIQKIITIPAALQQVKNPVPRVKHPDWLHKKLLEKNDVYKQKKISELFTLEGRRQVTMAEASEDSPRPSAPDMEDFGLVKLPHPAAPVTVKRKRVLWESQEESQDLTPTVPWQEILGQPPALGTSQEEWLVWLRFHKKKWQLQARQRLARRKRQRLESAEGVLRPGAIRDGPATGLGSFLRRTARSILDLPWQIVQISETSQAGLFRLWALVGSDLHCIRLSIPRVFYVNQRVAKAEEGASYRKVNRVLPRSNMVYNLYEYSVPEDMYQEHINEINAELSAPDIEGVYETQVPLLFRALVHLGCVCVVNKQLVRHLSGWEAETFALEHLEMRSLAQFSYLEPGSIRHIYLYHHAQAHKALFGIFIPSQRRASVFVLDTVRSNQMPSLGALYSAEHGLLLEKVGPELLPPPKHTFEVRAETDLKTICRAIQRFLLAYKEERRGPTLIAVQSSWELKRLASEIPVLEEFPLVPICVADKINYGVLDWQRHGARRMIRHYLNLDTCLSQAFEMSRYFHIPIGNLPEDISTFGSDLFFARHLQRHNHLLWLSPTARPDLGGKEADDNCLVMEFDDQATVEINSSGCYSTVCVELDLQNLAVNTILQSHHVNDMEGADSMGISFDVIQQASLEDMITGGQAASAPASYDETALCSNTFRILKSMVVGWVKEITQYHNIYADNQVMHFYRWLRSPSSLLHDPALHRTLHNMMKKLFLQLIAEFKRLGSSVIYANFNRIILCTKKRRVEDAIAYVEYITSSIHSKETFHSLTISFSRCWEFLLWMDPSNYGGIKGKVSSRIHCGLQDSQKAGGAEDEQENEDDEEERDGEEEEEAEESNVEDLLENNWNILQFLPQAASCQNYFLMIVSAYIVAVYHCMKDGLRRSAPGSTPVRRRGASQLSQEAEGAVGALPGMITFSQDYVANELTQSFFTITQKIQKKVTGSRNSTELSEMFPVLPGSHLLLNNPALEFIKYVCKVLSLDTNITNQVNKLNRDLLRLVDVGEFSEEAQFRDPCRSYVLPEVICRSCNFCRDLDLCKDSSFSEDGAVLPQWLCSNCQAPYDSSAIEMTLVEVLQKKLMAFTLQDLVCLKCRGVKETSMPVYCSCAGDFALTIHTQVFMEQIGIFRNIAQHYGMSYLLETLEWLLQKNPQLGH
Sequence of POLE1 ISC mutant;POLE2;POLE3;POLE4 (P56282 whole entry, stated change not applied, chain 2 of 4): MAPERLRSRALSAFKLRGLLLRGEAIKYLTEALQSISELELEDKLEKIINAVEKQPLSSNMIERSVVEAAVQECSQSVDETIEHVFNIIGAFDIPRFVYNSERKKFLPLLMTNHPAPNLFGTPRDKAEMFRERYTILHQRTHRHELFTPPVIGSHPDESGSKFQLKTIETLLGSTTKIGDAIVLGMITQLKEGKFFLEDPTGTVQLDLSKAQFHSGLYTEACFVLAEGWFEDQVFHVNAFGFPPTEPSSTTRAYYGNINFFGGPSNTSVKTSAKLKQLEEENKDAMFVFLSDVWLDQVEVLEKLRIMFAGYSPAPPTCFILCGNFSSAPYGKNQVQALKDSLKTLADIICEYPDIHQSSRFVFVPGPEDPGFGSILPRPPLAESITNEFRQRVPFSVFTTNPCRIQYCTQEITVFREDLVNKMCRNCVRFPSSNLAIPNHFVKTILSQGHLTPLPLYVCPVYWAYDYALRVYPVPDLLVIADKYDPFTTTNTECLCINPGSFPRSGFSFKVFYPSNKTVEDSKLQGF
Sequence of POLE1 ISC mutant;POLE2;POLE3;POLE4 (Q9NRF9 whole entry, stated change not applied, chain 3 of 4): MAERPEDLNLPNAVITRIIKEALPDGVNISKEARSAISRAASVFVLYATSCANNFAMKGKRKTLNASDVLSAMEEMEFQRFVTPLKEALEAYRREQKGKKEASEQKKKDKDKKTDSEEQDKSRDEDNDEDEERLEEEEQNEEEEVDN
Sequence of POLE1 ISC mutant;POLE2;POLE3;POLE4 (Q9NR33 whole entry, stated change not applied, chain 4 of 4): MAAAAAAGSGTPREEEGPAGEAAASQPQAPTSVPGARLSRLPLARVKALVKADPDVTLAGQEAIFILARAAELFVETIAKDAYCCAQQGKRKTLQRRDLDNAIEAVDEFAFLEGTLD
T1 sequence (Q07864 whole entry, stated change not applied, chain 1 of 4): as the sequence (Q07864 whole entry C651S/C654S, chain 1 of 4) above, with S651C, S654C counted along it
T1 sequence (P56282 whole entry, stated change not applied, chain 2 of 4): as the sequence (P56282 whole entry, stated change not applied, chain 2 of 4) above
T1 sequence (Q9NRF9 whole entry, stated change not applied, chain 3 of 4): as the sequence (Q9NRF9 whole entry, stated change not applied, chain 3 of 4) above
T1 sequence (Q9NR33 whole entry A44L/R45D/K47E/K51E, chain 4 of 4): as the sequence (Q9NR33 whole entry, stated change not applied, chain 4 of 4) above, with A44L, R45D, K47E, K51E counted along it
Sequence of POLE1 (Pol epsilon catalytic subunit);POLE2 (Q07864 whole entry, chain 1 of 2): as the sequence (Q07864 whole entry C651S/C654S, chain 1 of 4) above, with S651C, S654C counted along it
Sequence of POLE1 (Pol epsilon catalytic subunit);POLE2 (P56282 whole entry, chain 2 of 2): as the sequence (P56282 whole entry, stated change not applied, chain 2 of 4) above

B1: EMSA dsDNA 49 bp (dsDNA)
DNA 1: AGCTACCATGCCTGCACGAATTAAGCAATTCGTAATCATGGTCATAGCT
DNA 2: AGCTATGACCATGATTACGAATTGCTTAATTCGTGCAGGCATGGTAGCT
**Q.** Does B1 bind [1]?
**A.** no binding

**Q.** Does B1 bind ([2]; label: 5' 6FAM on strand 1, blunt)?
**A.** binds

**Q.** Does AGCTACCATGCCTGCACGAATTAAGCAATTCGTAATCATGGTCATAGCT (ssDNA) [EMSA ssDNA 49-mer] bind [3]?
**A.** binds

**Q.** Does AGCTACCATGCCTGCACGAATTAAGCAATTCGTAATCATGGTCATAGCT (ssDNA) [EMSA ssDNA 49-mer] bind [4]?
**A.** binds

**Q.** Does AGCTACCATGCCTGCACGAATTAAGCAATTCGTAATCATGGTCATAGCT (ssDNA) [EMSA ssDNA 49-mer] bind ([2]; label: 5' 6FAM)?
**A.** binds

B2: EMSA leading strand fork (dsDNA)
DNA 1: B1 DNA 1
DNA 2: CTACAGTTCGTCAGGATTCC
DNA 3: AGCTATGACCATGATTACGAATTGCTTGGAATCCTGACGAACTGTAG
**Q.** Does B2 bind ([2]; label: 5' 6FAM on strand 1, fork 1:3 (27 bp) 2:3 (20 bp), 22 nt 5' flap on strand 1)?
**A.** binds

Reference: paper PMC12796321, “The genetic and biochemical basis of human leading strand synthesis”
